From the supplement of paper PMC11316812
± gives the standard deviation of the averaged measurements.

Legend:
hTERT-HMEC = test: percentage of EdU-negative (G0-arrested) nuclei per well, 72 h; higher = more G0 arrest; details: reference: sequence is the full UniProt precursor, the tested protein was the secreted form or ectodomain
MCF7 = test: as above; details: reference: sequence is the full UniProt precursor, the tested protein was the secreted form or ectodomain
[1] = protein concentration 0.03125 µM
[2] = protein concentration 0.3125 µM
[3] = protein concentration 0.0225 µM
[4] = protein concentration 0.0251975 µM
[5] = protein concentration 0.251975 µM
[6] = protein concentration 0.0131429 µM
[7] = protein concentration 0.131429 µM
[8] = protein concentration 0.028295 µM
[9] = protein concentration 0.28295 µM
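Further: secreted proteins added to cultured cells, EdU pulse at the end, nuclei found by Hoechst imaging, EdU status from nuclear versus surrounding ring intensity ratio, PBS as neutral control.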

For “MAPARAGFCPLLLLLLLGLWVAEIPVSAKPKGMTSSQWFKIQHMQPSPQACNSAMKNINKHTKRCKDLNTFLHEPFSSVAATCQTPKIACKNGDKNCHQSHGAVSLTMCKLTSGKHPNCRYKEKRQNKSYVVACKPPQKKDSQQFHLVPVHLDRVL [Q9H1E1]”, the “percentage of EdU-negative” value (hTERT-HMEC; [1]) was 4.51 ± 0.69%, the “percentage of EdU-negative” value (hTERT-HMEC; [2]) was 6.66 ± 0.32% and the “percentage of EdU-negative” value (MCF7; [1]) was 24.6 ± 0.7%. The “percentage of EdU-negative” value (MCF7; [2]) was 26 ± 3.1%.
In the case of “MAPGSRTSLLLAFALLCLPWLQEAGAVQTVPLSRLFDHAMLQAHRAHQLAIDTYQEFEETYIPKDQKYSFLHDSQTSFCFSDSIPTPSNMEETQQKSNLELLRISLLLIESWLEPVRFLRSMFANNLVYDTSDSDDYHLLKDLEEGIQTLMGRLEDGSRRTGQILKQTYSKFDTNSHNHDALLKNYGLLYCFRKDMDKVETFLRMVQCRSVEGSCGF [P0DML2]”, the “percentage of EdU-negative” value (hTERT-HMEC; [1]) is reported as 5.53 ± 0.26%, the “percentage of EdU-negative” value (hTERT-HMEC; [2]) is reported as 6.34 ± 1.3% and the “percentage of EdU-negative” value (MCF7; [1]) is reported as 28.31 ± 0.052%. For the same sequence, the “percentage of EdU-negative” value (MCF7; [2]) was 25.8 ± 0.31%.
For “MAPISLSWLLRLATFCHLTVLLAGQHHGVTKCNITCSKMTSKIPVALLIHYQQNQASCGKRAIILETRQHRLFCADPKEQWVKDAMQHLDRQAAALTRNGGTFEKQIGEVKPRTTPAAGGMDESVVLEPEATGESSSLEPTPSSQEAQRALGTSPELPTGVTGSSGTRLPPTPKAQDGGPVGTELFRVPPVSTAATWQSSAPHQPGPSLWAEAKTSEAPSTQDPSTQASTASSPAPEENAPSEGQRVWGQGQSPRPENSLEREEMGPVPAHTDAFQDWGPGSMAHVSVVPVSSEGTPSREPVASGSWTPKAEEPIHATMDPQRLGVLITPVPDAQAATRRQAVGLLAFLGLLFCLGVAMFTYQSLQGCPRKMAGEMAEGLRYIPRSCGSNSYVLVPV”, the “percentage of EdU-negative” value (hTERT-HMEC; [3]) was 4.91 ± 0.028%, the “percentage of EdU-negative” value (hTERT-HMEC; protein concentration 0.225 µM) was 5.92 ± 0.33% and the “percentage of EdU-negative” value (MCF7; [3]) was 24.7 ± 2.4%. For the same sequence, the “percentage of EdU-negative” value (MCF7; protein concentration 0.225 µM) was 25.18 ± 0.043%.
For “MAPLKMLALVTLLLGASLQHIHAARGTNVGRECCLEYFKGAIPLRKLKTWYQTSEDCSRDAIVFVTVQGRAICSDPNNKRVKNAVKYLQSLERS”, the “percentage of EdU-negative” value (hTERT-HMEC; [4]) was 5.05 ± 1.6%, the “percentage of EdU-negative” value (hTERT-HMEC; [5]) was 5.85 ± 0.93% and the “percentage of EdU-negative” value (MCF7; [4]) was 26 ± 0.51%. The “percentage of EdU-negative” value (MCF7; [5]) was 25.9 ± 0.28%.
“MAPLRPLLILALLAWVALADQESCKGRCTEGFNVDKKCQCDELCSYYQSCCTDYTAECKPQVTRGDVFTMPEDEYTVYDDGEEKNNATVHEQVGGPSLTSDLQAQSKGNPEQTPVLKPEEEAPAPEVGASKPEGIDSRPETLHPGRPQPPAEEELCSGKPFDAFTDLKNGSLFAFRGQYCYELDEKAVRPGYPKLIRDVWGIEGPIDAAFTRINCQGKTYLFKGSQYWRFEDGVLDPDYPRNISDGFDGIPDNVDAALALPAHSYSGRERVYFFKGKQYWEYQFQHQPSQEECEGSSLSAVFEHFAMMQRDSWEDIFELLFWGRTSAGTRQPQFISRDWHGVPGQVDAAMAGRIYISGMAPRPSLAKKQRFRHRNRKGYRSQRGHSRGRNQNSRRPSRATWLSLFSSEESNLGANNYDDYRMDWLVPATCEPIQSVFFFSGDKYYRVNLRTRRVDTVDPPYPRSIAQYWLGCPAPGHL” was tested, and the “percentage of EdU-negative” value (hTERT-HMEC; [3]) was 5.37 ± 0.14%, the “percentage of EdU-negative” value (hTERT-HMEC; protein concentration 0.225 µM) was 4.7 ± 1.1% and the “percentage of EdU-negative” value (MCF7; [3]) was 25.1 ± 3.1%. For the same sequence, the “percentage of EdU-negative” value (MCF7; protein concentration 0.225 µM) was 31.11 ± 0.19%.
For “MAPPLRPLARLRPPGMLLRALLLLLLLSPLPGVWCFSELSFVKEPQDVTVTRKDPVVLDCQAHGEVPIKVTWLKNGAKMSENKRIEVLSNGSLYISEVEGRRGEQSDEGFYQCLAMNKYGAILSQKAHLALSTISAFEVQPISTEVHEGGVARFACKISSHPPAVITWEFNRTTLPMTMDRITALPTGVLQIYDVSQRDSGNYRCIAATVAHRRKSMEASLTVIPAKESKSFHTPTIIAGPQNITTSLHQTVVLECMATGNPKPIISWSRLDHKSIDVFNTRVLGNGNLMISDVRLQHAGVYVCRATTPGTRNFTVAMATLTVLAPPSFVEWPESLTRPRAGTARFVCQAEGIPSPKMSWLKNGRKIHSNGRIKMYNSKLVINQIIPEDDAIYQCMAENSQGSILSRARLTVVMSEDRPSAPYNVHAETMSSSAILLAWERPLYNSDKVIAYSVHYMKAEGLNNEEYQVVIGNDTTHYIIDDLEPASNYTFYIVAYMPMGASQMSDHVTQNTLEDVPLRPPEISLTSRSPTDILISWLPIPAKYRRGQVVLYRLSFRLSTENSIQVLELPGTTHEYLLEGLKPDSVYLVRITAATRVGLGESSVWTSHRTPKATSVKAPKSPELHLEPLNCTTISVRWQQDVEDTAAIQGYKLYYKEEGQQENGPIFLDTKDLLYTLSGLDPRRKYHVRLLAYNNIDDGYQADQTVSTPGCVSVRDRMVPPPPPPHHLYAKANTSSSIFLHWRRPAFTAAQIINYTIRCNPVGLQNASLVLYLQTSETHMLVQGLEPNTKYEFAVRLHVDQLSSPWSPVVYHSTLPEAPAGPPVGVKVTLIEDDTALVSWKPPDGPETVVTRYTILYASRKAWIAGEWQVLHREGAITMALLENLVAGNVYIVKISASNEVGEGPFSNSVELAVLPKETSESNQRPKRLDSADAKVYSGYYHLDQKSMTGIAVGVGIALTCILICVLILIYRSKARKSSASKTAQNGTQQLPRTSASLASGNEVGKNLEGAVGNEESLMPMIMPNSFIDAKGGTDLIINSYGPIIKNNSKKKWFFFQDSKKIQVEQPQRRFTPAVCFYQPGTTVLISDEDSPSSPGQTTSFSRPFGVAADTEHSANSEGSHETGDSGRFSHESNDEIHLSSVISTTPPNL [Q2VWP7]”, the “percentage of EdU-negative” value (hTERT-HMEC; [6]) was 4.73 ± 0.2%, the “percentage of EdU-negative” value (hTERT-HMEC; [7]) was 5.16 ± 0.39% and the “percentage of EdU-negative” value (MCF7; [6]) was 25.8 ± 0.61%. The “percentage of EdU-negative” value (MCF7; [7]) was 25.2 ± 1.5%.
For “MAPPQVLAFGLLLAAATATFAAAQEECVCENYKLAVNCFVNNNRQCQCTSVGAQNTVICSKLAAKCLVMKAEMNGSKLGRRAKPEGALQNNDGLYDPDCDESGLFKAKQCNGTSMCWCVNTAGVRRTDKDTEITCSERVRTYWIIIELKHKAREKPYDSKSLRTALQKEITTRYQLDPKFITSILYENNVITIDLVQNSSQKTQNDVDIADVAYYFEKDVKGESLFHSKKMDLTVNGEQLDLDPGQTLIYYVDEKAPEFSMQGLKAGVIAVIVVVVIAVVAGIVVLVISRKKRMAKYEKAEIKEMGEMHRELNA”, the “percentage of EdU-negative” value (hTERT-HMEC; [8]) was 4.24 ± 0.27%, the “percentage of EdU-negative” value (hTERT-HMEC; [9]) was 7.81 ± 1.4% and the “percentage of EdU-negative” value (MCF7; [8]) was 26.6 ± 1.3%. For the same sequence, the “percentage of EdU-negative” value (MCF7; [9]) was 26.1 ± 0.38%.
